Experimental data as given in IntAct's records for PubMed 12732628.

B1: Molybdopterin synthase sulfur carrier subunit (Homo sapiens), O96033 (parent)
chain: MVPLCQVEVLYFAKSAEITGVRSETISVPQEIKALQLWKEIETRHPGLADVRNQIIFAVRQEYVELGDQLLVLQPGDEIAVIPPISGG
partner: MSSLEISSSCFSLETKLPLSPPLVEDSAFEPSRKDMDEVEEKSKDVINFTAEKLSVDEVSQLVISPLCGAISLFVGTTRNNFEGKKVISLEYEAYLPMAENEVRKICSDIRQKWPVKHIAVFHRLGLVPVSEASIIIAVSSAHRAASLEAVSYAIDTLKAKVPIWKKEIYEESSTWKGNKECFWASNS

Variants of: B1
Conditions: with moc2b_human MOCS2, O96007

Q: For V7F, which “effect of a mutation on the interaction” value is on record?
A: disrupting interaction
